Source: PMC5955915 (2018)

Biological target: BG505 SOSIP.664
Assay: BLI

B1: PGT122 Fab (Fab, V domains shown)
VH: QVHLQESGPGLVKPSETLSLTCNVSGTLVRDNYWSWIRQPLGKQPEWIGYVHDSGDTNYNPSLKSRVHLSLDKSKNLVSLRLTGVTAADSAIYYCATTKHGRRIYGVVAFKEWFTYFYMDVWGKGTSVTVSS
VL: APTFVSVAPGQTARITCGEESLGSRSVIWYQQRPGQAPSLIIYNNNDRPSGIPDRFSGSPGSTFGTTATLTITSVEAGDEADYYCHIWDSRRPTNWVFGEGTTLIVL
Q: Which Kd does the source give for B1 here?
A: The Kd was 34.8 nM.

Q: What about the koff of the same binder?
A: Its koff is 0.00085 s⁻¹.
